Measurements: article PMC4752584, “The C repressor of the P2 bacteriophage” (Journal of Biomolecular Nmr, 2015)

Target: the molecule itself
Assay: NMR solution structure; 13C,15N-labelled P2 C at 6 mg/ml in 10 mM Na-phosphate pH 7.0, 150 mM NaCl, 10 % D2O; 13C- and 15N-NOESY-HSQC, 150 ms mixing time, 310 K, 900 MHz; CYANA2.1; homodimer interface found with aid from the crystal structure 2XCJ

B1: C-repressor of bacteriophage P2 (natural protein)
chain: MSNTISEKIVLMRKSEYLSRQQLADLTGVPYGTLSYYESGRSTPPTDVMMNILQTPQFTKYTLWFMTNQIAPEFGQIAPALAHFGQNETTSPHSGQKTG
notes: C repressor of bacteriophage P2, a 99 amino acid protein; wildtype; signals of residues up to 99 are reported; Uniformly 13C,15N labelled for the structure (grown in M9 with 13C-glucose and 15N-NH4Cl); No tag is mentioned; also called P2 C; P2C; source: E. coli BL21(DE3) with plasmid pEE679, purified (DEAE flow-through, HiTrap Heparin, Superdex 200)
B1: binds.
